According to the supplement of paper PMC12764529:
± gives the half width of the 95% confidence interval.

Legend:
[1] = folding stability dG unfold from chymotrypsin proteolysis; higher = more stable
Procedure, shortened: (§1)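 Only designs with AlphaFold2 dimer inter-PAE above 15 were retained; each was a mini-protein under 80 residues with no cysteine, in a PA-tagged cDNA display construct. After digestion with trypsin and chymotrypsin and sequencing, K50 was inferred by Bayesian fitting of counts, and unfolding free energy was derived per protease or combined against a sequence-predicted unfolded-state K50 and a shared folded-state K50.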

[2] = folding stability dG unfold from trypsin proteolysis; higher = more stable
Procedure, shortened: as §1

[3] = folding stability dG unfold (combined trypsin and chymotrypsin); higher = more stable
Procedure, shortened: as §1

Sequence	folding stability dG unfold [1] [kcal/mol]	folding stability dG unfold [2] [kcal/mol]	folding stability dG unfold [3] [kcal/mol]
SAGGSAGGSLKKGEKVKLRARIYEPGGGKLLAELEIEADVGKAEEIAEELRKAFPGYEVEIELSAGGSAGGS [r12_21_TrMRF]	3.24 ± 0.057	2.67 ± 0.036	3.04 ± 0.07
SKIKPGDVVTIMFPFPPGDPDQIREWAYWIARKLGPDVKVKSVEYNPNDPRYVQIEVRVPGGKITIHIMWSA [r9_1079_TrROS]	4.25 ± 0.076	2.7 ± 0.06	3.7 ± 0.12
SAGGSMSPALNKKLDVEEITADEEEAKKIAKESKKPVIVTLPDGTVLRFNTDGSVTEYPLPPPELLSAGGSA [r2_34_JUSTAS]	1.12 ± 0.12	0.443 ± 0.07	0.958 ± 0.12
SAGGEEEEFEVVAEIEIEVDGKTYTITIVRDKETDEYRVEIRNKETGETKTITVSAEELEELLKALSSAGGS [r8_469_TrROS_Hall]	4.77 ± 0.32	3.17 ± 0.36	4.77 ± 0.52
SAGGSAGGSAGGMTLVIVVETEEQAEALAEELKKKGFEVTVERDEETNLLVVTVKVKPPPSAGGSAGGSAGG [r7_623_TrROS_Hall]	3.36 ± 0.11	4.04 ± 0.25	3.66 ± 0.12
SAGGSAGGSAGMWIDEDTIRRLAALLGYPGKVEVVRLEDGSLLVVVYGDTEPGVLLFPLDSAGGSAGGSAGG [r11_410_TrMRF]	2.255 ± 0.017	3.02 ± 0.079	2.59 ± 0.048
SAGGSVDIKRIEIYHPPDDKIYIRIDAVASPEHPEDPELRKAQAEALRKPVIEELMKKLGIEPEELSAGGSA [r2_306_JUSTAS]	0.61 ± 0.073	0.241 ± 0.075	0.468 ± 0.12
SALEEEVKKRAEEIAQEIKEKFPNVKEKVVEIELPLPNGTKLKATVTISRSINEKGIEYKIKIEVSEGLSAG [r14_788_JUSTAS]	3.99 ± 0.12	3.22 ± 0.081	3.68 ± 0.17
SAGGGRVAVLKVEVRNPETGETTEVELVLPLPPEMTPEEAEEAAREAARTLAESTGVEVEIKSVELLSAGGS [r8_312_TrMRF]	3.278 ± 0.031	3.77 ± 0.068	3.46 ± 0.053
SAGGMLDLSDVEVLNTVPIGGGNYLVLLKVPKLGKVVVVPASDLKKLKENVPNVKISFTPVAPSESGSAGGS [r16_61_TrMRF]	1.3 ± 0.072	0.601 ± 0.025	1.09 ± 0.059
SAGGSAMLVIEIEVDGKKVTLVIEVPPEMTEEEIRELAEELAERLRALPGVKEVKVKIERVPPPPESAGGSA [r15_246_TrROS_Hall]	3.56 ± 0.18	4.06 ± 0.22	3.85 ± 0.26
SAGGMVKLTVYETPDSYTVTIDLGDKPYTIPVPPGLSPEEAAARAVEELQKAFPDEEVVVESVEYVARSAGG [r13_884_JUSTAS]	1.24 ± 0.086	1.1 ± 0.079	1.19 ± 0.068
SAGGSAGGSAGPPIMVMVHKHDKEDGKPKIDESIPIDIPPDQQDKLKEEANERGYHVHPFSAGGSAGGSAGG [r17_18_TrROS]	0.0379 ± 0.11	0.207 ± 0.054	0.158 ± 0.091
SAGGSAGGSAGGAPLVEVEEVETRRVKDPATKRWYRRTRVRVRNKETGEWYELEFVEPLSAGGSAGGSAGGS [r10_535_TrROS_Hall]	2.599 ± 0.02	2.49 ± 0.025	2.54 ± 0.048
SAGGSAGGKKTYRLEITIYNKDGKEIKKIEIEAETEEEALEAAKKLQEEAKKKGLKVEIKVEKVSAGGSAGG [r6_285_TrROS_Hall]	4.7 ± 0.068	4.2 ± 0.21	4.72 ± 0.15
SAGTIAKEIAEKLGLPGLKVKDVKFEPDPDGPIKEIEITVEFPNGRYWKIDIRYDPGNIVIDIEPVPPSAGG [r19_392_TrROS]	2.29 ± 0.029	1.98 ± 0.056	2.17 ± 0.1
GYTITSEVEEFEDPNSDAKYTKVTIPVVDGDPEVAREAAEEIAKERFGPGATLDIKYDPETGTVTATFTVAS [r1_273_JUSTAS]	0.379 ± 0.1	0.511 ± 0.026	0.563 ± 0.081
SAGPKKKVEIDVHIMIPFKSWEDRELMLYYARKFAPYIARELAKQNGLPPGVDEVKVDVNIMIIPPGQMSAG [r5_436_TrROS]	3.87 ± 0.04	2.84 ± 0.12	3.34 ± 0.12
SAGGMKIIEIEYDEETGKYKFKIKIYDKKTGKLYEIEVEVDKKTGKLSIEEIAKKIAEKLGLPKDIKISAGG [r13_362_TrROS_Hall]	4.03 ± 0.062	2.8 ± 0.17	3.69 ± 0.3
SAGTIREALDNPKNKRVVIMIMIPPEDFPPGDPERYRERAREMANGIMGWFRERGLDVKIEIEIMYMPWSAG [r5_408_TrROS]	2.77 ± 0.03	2.38 ± 0.044	2.65 ± 0.079
SAKMYLVIIEIKKDGKTYKLIIIIPEEDENLTEEEILEKIRELAEKLNLEIEKIEVIPLEEAKKLLEELSAG [r14_953_TrROS_Hall]	5.25 ± 0.13	3.66 ± 0.074	5.23 ± 0.13

Sequence	folding stability dG unfold [1] [kcal/mol]	folding stability dG unfold [2] [kcal/mol]	folding stability dG unfold [3] [kcal/mol]
SAGGSAGGKKKVKYYKIKEVKIEKDEDGNYTITVKVDGKTFTITIPKEKIKPGMKLKDIVIKIKSAGGSAGG [r6_255_TrROS_Hall]	3.57 ± 0.038	1.91 ± 0.041	3.16 ± 0.11
SAGGSAGGSAGGSGMTYRTVEIEVRLPEVPGKTVKITIVVPEGATEEEIKALAEELARKSAGGSAGGSAGGS [r4_442_TrROS_Hall]	2.88 ± 0.039	2.87 ± 0.14	2.94 ± 0.12
SAMKVTIEPLEDGSTVITLDDGTEITFSAPGSGAPILAKVTPLPNTGVVRVDIYHPEGGKLLAPLVVPLSAG [r14_975_TrMRF]	0.579 ± 0.094	0.657 ± 0.034	0.734 ± 0.053
SAGGSAGGMIKYSEEAPDPSYRTEVEVTPVPGKVAIKTTTYRNENGVWTAEESTSVVSPEALLSSAGGSAGG [r6_778_JUSTAS]	0.341 ± 0.095	-0.703 ± 0.19	0.0979 ± 0.088
SAGGSAGGSAGGGMKVEKEESPDSTVTETITDPSSENTTIVTKEVLPDGSLKVTETKELPSAGGSAGGSAGG [r7_828_JUSTAS]	0.987 ± 0.06	-0.224 ± 0.087	0.717 ± 0.14
SETETITVEVTMPAEELANMSAEELAARLREAFPDLKITSISITVEEVEDPETGERLVRVTVTITVERVPSA [r9_1189_TrROS_Hall]	3.4 ± 0.068	4.28 ± 0.11	4.31 ± 0.15
SAGGSMGKTPDGGEVEFFEKPEENLIFAVVKHPDGSYYVAVFKKDEDKIELIDVKEVPEGEIEELASAGGSA [r2_336_TrMRF]	2.07 ± 0.031	1.26 ± 0.089	1.89 ± 0.13
SAGGSAGGSMTIDGNALYEELGKDLPDEEKRKLFEEKAEEIAKKLGIPNMKVNINIKKPNEIKSAGGSAGGS [r12_666_JUSTAS]	0.135 ± 0.051	-0.213 ± 0.093	0.0998 ± 0.078
SAGGSAGGSAGGSPSETLEVTLADGTRLTVTRNADGSLTVTVEPAPPPPVVVFKSPEELSAGGSAGGSAGGS [r4_120_TrROS_Hall]	0.623 ± 0.14	1.44 ± 0.025	1.14 ± 0.096
SAGGSAGGSMETRTFDSEEELRASVSVPSSLSVTFERRPGRWEVRIEPPLSPEEIAAQRARLLSAGGSAGGS [r12_274_JUSTAS]	-1.07 ± 0.6	-0.346 ± 0.17	-0.553 ± 0.11
SAGEKPEKPPEVTITITSVKVERLPDGTVVVEVEAEIEVDGVTLTVRARFVYRDGKLFLEVEVRLEPLPSAG [r5_267_TrROS_Hall]	5.47 ± 0.24	3.5 ± 0.19	4.59 ± 0.95
SAGGSAGGSKTVTLTLTLPGKKITFTLTEDGTVRMTVYNEKTGEKVKEITVPAKNLEELLKALSAGGSAGGS [r20_129_TrROS_Hall]	4.63 ± 0.064	3.02 ± 0.085	4.29 ± 0.066
SAGGSMKIVKIEKIDLAKLKPGDIIEVKLENGEIYRIRIEKNEDGKYTVYIYNKNGELVEEFEFDVSAGGSA [r2_323_TrROS_Hall]	4.25 ± 0.034	2.27 ± 0.12	3.84 ± 0.097
SAGGMKLEILEKSENRIIIRTDEGKIYIAPEIVKKLKEKGGNIKPTLDEIIEWLEKNNIPAEDAVFGDSAGG [r13_610_TrMRF]	1.11 ± 0.064	0.689 ± 0.028	0.915 ± 0.11
SAGGSAGGSKPKEIETVTLKLTLKDPETGEEIEVTVELTRVRVDGKEYLILRVTDPDGKEIELSAGGSAGGS [r12_283_TrROS_Hall]	4.115 ± 0.039	3.13 ± 0.12	3.81 ± 0.09
SMKIEFLDVKEDGTIVIRLTLLRPDGKPPTKEEAAERAKEIAEILKPYFPDAEFTIEFDPESGEATIVIDSA [r9_485_TrMRF]	4.7 ± 0.15	4.66 ± 0.57	4.83 ± 0.33
SAGGSAGGSMPFIKVKVRFIEPNGIERTFEIELPEDKNLDEAIKLAPLFAKNGLPVEIEEVEGSAGGSAGGS [r12_804_TrMRF]	0.0494 ± 0.44	0.758 ± 0.089	0.466 ± 0.18
SAGGSAGGSAGGEEVTIVVKSKEDIEALLPPGWKVTKIEEIYVDKETGEKYYKITVKKESAGGSAGGSAGGS [r10_256_TrROS_Hall]	3.88 ± 0.062	4.23 ± 0.17	4.06 ± 0.12
SAMKIVEIVEYDKEKKKIRIKIEVNGKLLEIEIEAESEEEVEEALKKLKEELEFELPDGKKVRITEIEISAG [r14_422_TrROS_Hall]	2.08 ± 0.14	0.749 ± 0.15	1.63 ± 0.28
SAGGSAGGSKLTIMVKMDSAEDAEEEARSLLKELGIKPGMKEVKVSMFPRGNEYYAHVEIKFKSAGGSAGGS [r12_7_TrROS]	0.759 ± 0.15	0.672 ± 0.038	0.776 ± 0.12
